Experimental data reported in the supplement of paper PMC10065799, “High-throughput profiling of sequence recognition by tyrosine kinases and SH2 domains using bacterial peptide display” (eLife, 2023).

What was measured:
[1] = target: Grb2 SH2 (UniProt P62993); test: SH2 binding enrichment of the phosphorylated peptide, bacterial display (enrichment ratio); higher = better substrate or ligand; peptides without Tyr show the background
[2] = target: c-Src SH2; test: as above
[3] = target: SHP2-C SH2; test: as above
[4] = target: Fes (UniProt P07332); test: phosphorylation enrichment, bacterial display (enrichment ratio); higher = better substrate or ligand; peptides without Tyr show the background
[5] = target: EPHB2 (UniProt P29323); test: as above
[6] = test system: c-Src; test: as above
[7] = target: MERTK (UniProt Q12866); test: as above
[8] = target: Hck (UniProt P08631); test: as above
[9] = target: FGFR3 (UniProt P22607); test: as above
[10] = target: FGFR1 (UniProt P11362); test: as above
[11] = target: Jak2 (UniProt O60674); test: as above
[12] = target: EPHB1 (UniProt P54762); test: as above
[13] = target: Fyn (UniProt P06241); test: as above
[14] = test system: c-Abl (mouse); test: as above
[15] = test system: AncSZ; test: as above
[16] = test system: Fer (mouse); test: as above
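Throughout, for SH2 binding enrichment of the phosphorylated peptide, bacterial display: peptide library displayed on the E. coli surface as eCPX fusions, selected cells deep-sequenced, score is each peptide's frequency after selection divided by its frequency in the input.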
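Throughout, for phosphorylation enrichment, bacterial display: 11-residue human phosphosite peptides and single-mutation variants displayed on the E. coli surface, counted by deep sequencing, each peptide's frequency after selection divided by its frequency in the unselected input library; frequency after pTyr selection over input frequency; kinase dosed for 20-30% of maximal phosphorylation in three min.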

Chain of EPHB1 (P54762 whole entry, looked up): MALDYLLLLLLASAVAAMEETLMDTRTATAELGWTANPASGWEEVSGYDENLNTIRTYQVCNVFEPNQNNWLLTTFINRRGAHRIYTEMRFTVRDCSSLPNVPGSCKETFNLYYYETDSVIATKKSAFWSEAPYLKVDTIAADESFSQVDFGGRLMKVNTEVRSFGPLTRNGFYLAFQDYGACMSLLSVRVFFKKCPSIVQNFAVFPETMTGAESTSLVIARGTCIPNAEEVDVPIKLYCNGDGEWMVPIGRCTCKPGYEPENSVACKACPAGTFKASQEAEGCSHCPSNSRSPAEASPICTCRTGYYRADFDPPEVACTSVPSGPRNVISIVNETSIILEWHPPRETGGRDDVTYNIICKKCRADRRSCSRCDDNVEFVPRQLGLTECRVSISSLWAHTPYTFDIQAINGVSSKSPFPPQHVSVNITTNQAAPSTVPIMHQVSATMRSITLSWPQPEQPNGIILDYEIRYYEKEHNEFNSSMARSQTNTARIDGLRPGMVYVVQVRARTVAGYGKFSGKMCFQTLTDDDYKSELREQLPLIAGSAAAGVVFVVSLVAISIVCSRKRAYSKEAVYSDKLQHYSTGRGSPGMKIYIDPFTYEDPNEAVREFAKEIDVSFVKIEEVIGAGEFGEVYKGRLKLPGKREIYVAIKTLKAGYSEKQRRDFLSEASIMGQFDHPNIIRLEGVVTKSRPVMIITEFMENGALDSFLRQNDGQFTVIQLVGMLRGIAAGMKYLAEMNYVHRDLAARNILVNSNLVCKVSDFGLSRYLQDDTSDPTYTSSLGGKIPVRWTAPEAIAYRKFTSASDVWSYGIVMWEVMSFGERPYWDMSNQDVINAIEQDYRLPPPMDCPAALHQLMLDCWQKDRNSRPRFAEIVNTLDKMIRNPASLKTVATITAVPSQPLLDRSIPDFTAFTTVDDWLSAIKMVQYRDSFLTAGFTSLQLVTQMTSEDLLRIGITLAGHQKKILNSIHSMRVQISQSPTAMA
Chain of EPHB2 (P29323 whole entry, looked up): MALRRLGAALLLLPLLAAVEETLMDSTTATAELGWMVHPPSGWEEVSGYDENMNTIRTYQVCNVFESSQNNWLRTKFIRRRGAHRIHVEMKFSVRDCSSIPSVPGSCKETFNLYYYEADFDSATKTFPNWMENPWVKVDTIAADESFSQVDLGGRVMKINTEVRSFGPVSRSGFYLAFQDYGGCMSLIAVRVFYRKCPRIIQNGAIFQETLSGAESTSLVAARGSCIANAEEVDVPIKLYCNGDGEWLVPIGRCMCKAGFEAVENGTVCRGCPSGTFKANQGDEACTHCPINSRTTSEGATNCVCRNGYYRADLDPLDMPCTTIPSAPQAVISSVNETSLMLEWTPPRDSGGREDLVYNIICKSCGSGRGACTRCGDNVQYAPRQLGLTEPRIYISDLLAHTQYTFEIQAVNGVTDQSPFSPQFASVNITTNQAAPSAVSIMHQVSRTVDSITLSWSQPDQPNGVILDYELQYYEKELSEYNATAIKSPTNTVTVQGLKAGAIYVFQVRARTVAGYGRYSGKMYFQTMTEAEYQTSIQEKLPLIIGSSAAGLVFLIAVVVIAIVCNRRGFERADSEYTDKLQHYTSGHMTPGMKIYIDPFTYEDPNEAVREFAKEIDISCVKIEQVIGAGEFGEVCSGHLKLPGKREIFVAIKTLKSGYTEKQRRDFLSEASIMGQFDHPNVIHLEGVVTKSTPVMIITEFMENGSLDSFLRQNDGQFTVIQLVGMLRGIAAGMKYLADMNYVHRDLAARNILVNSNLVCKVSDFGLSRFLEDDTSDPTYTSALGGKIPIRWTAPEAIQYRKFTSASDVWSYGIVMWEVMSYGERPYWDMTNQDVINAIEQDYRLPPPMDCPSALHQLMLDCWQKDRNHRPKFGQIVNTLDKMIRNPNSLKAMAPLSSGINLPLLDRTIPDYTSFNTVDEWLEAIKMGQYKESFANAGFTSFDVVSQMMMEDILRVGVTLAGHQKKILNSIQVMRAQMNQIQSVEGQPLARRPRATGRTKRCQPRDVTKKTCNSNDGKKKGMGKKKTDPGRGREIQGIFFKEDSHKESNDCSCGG
Chain of Fes (P07332 whole entry, looked up): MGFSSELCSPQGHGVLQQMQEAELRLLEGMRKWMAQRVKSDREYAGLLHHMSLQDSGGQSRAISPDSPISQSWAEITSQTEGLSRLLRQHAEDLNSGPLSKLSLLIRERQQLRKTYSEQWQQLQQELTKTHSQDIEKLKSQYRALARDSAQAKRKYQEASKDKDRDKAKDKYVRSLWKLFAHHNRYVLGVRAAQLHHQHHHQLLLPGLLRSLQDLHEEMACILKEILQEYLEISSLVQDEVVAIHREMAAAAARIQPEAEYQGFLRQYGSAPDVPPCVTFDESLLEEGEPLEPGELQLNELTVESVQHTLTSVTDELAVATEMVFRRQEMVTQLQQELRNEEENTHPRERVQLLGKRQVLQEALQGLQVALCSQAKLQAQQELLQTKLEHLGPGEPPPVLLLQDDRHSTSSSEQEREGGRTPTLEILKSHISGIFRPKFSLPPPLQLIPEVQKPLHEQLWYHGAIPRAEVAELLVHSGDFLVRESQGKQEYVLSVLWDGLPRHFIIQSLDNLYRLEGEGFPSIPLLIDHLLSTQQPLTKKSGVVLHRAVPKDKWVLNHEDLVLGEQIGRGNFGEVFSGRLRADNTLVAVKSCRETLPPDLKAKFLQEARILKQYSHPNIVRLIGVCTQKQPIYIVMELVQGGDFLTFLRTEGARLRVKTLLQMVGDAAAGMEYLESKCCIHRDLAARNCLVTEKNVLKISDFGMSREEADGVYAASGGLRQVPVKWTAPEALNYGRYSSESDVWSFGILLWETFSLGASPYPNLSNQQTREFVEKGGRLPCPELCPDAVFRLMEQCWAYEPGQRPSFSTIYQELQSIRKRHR
Chain of Fyn (P06241 whole entry, looked up): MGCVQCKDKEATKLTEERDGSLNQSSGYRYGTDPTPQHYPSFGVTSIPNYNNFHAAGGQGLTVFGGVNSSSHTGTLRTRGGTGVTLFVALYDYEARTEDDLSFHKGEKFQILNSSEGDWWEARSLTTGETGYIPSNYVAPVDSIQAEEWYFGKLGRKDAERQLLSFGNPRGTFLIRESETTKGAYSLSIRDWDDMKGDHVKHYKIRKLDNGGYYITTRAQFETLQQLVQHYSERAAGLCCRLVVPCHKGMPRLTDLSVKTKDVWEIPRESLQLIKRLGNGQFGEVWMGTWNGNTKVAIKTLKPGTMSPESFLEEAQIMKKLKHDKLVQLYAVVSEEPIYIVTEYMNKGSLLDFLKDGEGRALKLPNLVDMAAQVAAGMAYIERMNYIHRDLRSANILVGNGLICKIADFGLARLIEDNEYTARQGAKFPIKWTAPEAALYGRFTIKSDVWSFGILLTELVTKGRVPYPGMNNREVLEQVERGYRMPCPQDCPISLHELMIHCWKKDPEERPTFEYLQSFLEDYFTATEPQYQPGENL
Chain of Jak2 (O60674 whole entry, looked up): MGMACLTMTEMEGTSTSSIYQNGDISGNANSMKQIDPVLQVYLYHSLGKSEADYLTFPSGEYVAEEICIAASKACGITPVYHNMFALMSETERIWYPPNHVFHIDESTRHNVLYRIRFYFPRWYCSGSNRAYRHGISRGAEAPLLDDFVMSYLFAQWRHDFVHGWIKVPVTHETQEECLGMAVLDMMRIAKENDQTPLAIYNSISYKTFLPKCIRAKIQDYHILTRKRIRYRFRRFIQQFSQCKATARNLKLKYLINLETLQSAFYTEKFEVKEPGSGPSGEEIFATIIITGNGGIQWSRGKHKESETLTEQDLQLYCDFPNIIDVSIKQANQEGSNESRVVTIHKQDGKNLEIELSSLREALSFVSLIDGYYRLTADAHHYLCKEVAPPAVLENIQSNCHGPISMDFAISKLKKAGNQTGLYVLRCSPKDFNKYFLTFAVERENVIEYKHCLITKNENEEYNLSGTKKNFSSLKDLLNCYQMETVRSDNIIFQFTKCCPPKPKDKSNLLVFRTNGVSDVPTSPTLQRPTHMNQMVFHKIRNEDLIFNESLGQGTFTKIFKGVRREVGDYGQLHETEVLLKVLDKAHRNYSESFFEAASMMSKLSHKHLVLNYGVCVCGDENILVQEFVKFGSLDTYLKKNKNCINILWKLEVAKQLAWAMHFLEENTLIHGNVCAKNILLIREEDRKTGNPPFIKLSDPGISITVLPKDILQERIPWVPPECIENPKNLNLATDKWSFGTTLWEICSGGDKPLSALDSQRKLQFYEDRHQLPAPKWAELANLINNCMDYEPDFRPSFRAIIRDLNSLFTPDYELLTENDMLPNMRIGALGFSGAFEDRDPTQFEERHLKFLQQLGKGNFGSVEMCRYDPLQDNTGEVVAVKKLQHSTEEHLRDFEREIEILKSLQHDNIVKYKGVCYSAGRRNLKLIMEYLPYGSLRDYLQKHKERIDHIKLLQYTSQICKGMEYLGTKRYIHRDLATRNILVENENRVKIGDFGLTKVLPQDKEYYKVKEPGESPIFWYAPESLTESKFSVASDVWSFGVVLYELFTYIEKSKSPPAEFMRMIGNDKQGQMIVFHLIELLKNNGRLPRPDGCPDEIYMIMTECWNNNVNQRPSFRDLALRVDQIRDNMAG
Chain of Grb2 SH2 (P62993 whole entry, looked up): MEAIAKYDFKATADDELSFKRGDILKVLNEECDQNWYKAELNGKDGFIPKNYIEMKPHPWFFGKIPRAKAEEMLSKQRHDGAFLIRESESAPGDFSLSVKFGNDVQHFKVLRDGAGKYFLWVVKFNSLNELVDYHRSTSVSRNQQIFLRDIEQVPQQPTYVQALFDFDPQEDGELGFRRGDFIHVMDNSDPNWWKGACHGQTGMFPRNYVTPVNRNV

Sequence | SH2 binding enrichment [1] | SH2 binding enrichment [2] | SH2 binding enrichment [3] | phosphorylation enrichment [4] | phosphorylation enrichment [5] | phosphorylation enrichment [6] | phosphorylation enrichment [7] | phosphorylation enrichment [8] | phosphorylation enrichment [9] | phosphorylation enrichment [10] | phosphorylation enrichment [11] | phosphorylation enrichment [12] | phosphorylation enrichment [13] | phosphorylation enrichment [14] | phosphorylation enrichment [15] | phosphorylation enrichment [16]
AAAAVYTFLPD [MYORG_Y36_M35V] | 0.882 | 1.92 | 0.79 | 1.2 | 2.45 | 7.02 | 9.47 | 6.52 | 10.6 | 12.4 | 0.979 | 3.68 | 8.32 | 1.12 | 1.48 | 1.85
AAFNKYDQERF [CDC73_Y293_R292K_YF] | 0.867 | 0.44 | 0.776 | 0.785 | 0.483 | 0.414 | 0.396 | 0.375 | 0.531 | 0.412 | 0.599 | 0.401 | 0.485 | 0.494 | 0.692 | 0.428
AALSAYAAQRP [PTPRN2_Y249] | 0.813 | 0.457 | 0.662 | 0.491 | 0.353 | 0.315 | 0.312 | 0.386 | 0.433 | 0.406 | 0.462 | 0.299 | 0.305 | 0.377 | 0.439 | 0.347
AASTDYFKRGD [PDHA1_Y242_YF] | 0.879 | 0.416 | 0.68 | 0.663 | 0.454 | 0.352 | 0.325 | 0.45 | 0.426 | 0.402 | 0.57 | 0.372 | 0.462 | 0.421 | 0.625 | 0.363
AATTAYSKPKR [MAP3K7_Y405] | 0.935 | 0.693 | 0.712 | 0.563 | 0.264 | 0.354 | 0.302 | 0.384 | 0.37 | 0.337 | 0.425 | 0.275 | 0.281 | 0.509 | 0.404 | 0.317
AAVPAYDKIQV [STXBP2_Y401_R405Q] | 0.759 | 6.48 | 0.546 | 1.43 | 0.417 | 0.593 | 0.688 | 1.09 | 0.666 | 0.66 | 1.06 | 0.793 | 0.612 | 0.96 | 0.92 | 5.58
ADDSFYTARSA [ZAP70_Y493_YF] | 0.883 | 0.419 | 1.55 | 0.993 | 0.534 | 0.707 | 0.681 | 1.01 | 0.904 | 0.55 | 0.877 | 0.597 | 0.711 | 0.561 | 0.822 | 0.451
ADFPDCKFRPR [SOX11_Y116_Y116C_YF] | 1.05 | 1.19 | 0.996 | 0.983 | 0.409 | 0.465 | 0.391 | 0.545 | 0.616 | 0.532 | 0.965 | 0.488 | 0.395 | 0.744 | 0.783 | 0.412
ADKSAYLMGPN [MYH7_Y386_L390P] | 0.766 | 0.482 | 0.729 | 0.637 | 0.391 | 0.631 | 0.408 | 0.508 | 0.545 | 0.473 | 0.7 | 0.386 | 0.544 | 0.441 | 0.636 | 0.371
ADLAKYICENR [ALB_Y287_Q292R] | 0.817 | 0.424 | 0.79 | 0.946 | 0.406 | 0.467 | 0.45 | 0.447 | 0.691 | 0.469 | 0.928 | 0.537 | 0.427 | 1.36 | 0.84 | 0.498
ADLTEYLSTHF [UQCRC1_Y219_YF] | 0.717 | 0.4 | 0.539 | 1.35 | 0.672 | 0.561 | 0.571 | 0.604 | 0.923 | 0.699 | 1.2 | 0.681 | 0.577 | 0.958 | 1.43 | 0.493
AEARMYGVLPW [PLP1_Y207_D203E] | 0.769 | 0.46 | 0.871 | 0.811 | 1.05 | 4.81 | 1.54 | 7.47 | 0.559 | 0.502 | 0.65 | 0.692 | 7.15 | 0.989 | 0.767 | 0.477
AEKPKYQINNI [TJP1_Y1602] | 0.906 | 0.508 | 0.766 | 0.682 | 0.802 | 0.363 | 0.349 | 0.366 | 0.427 | 0.383 | 0.704 | 0.366 | 0.341 | 0.548 | 0.541 | 0.368
AEMKRYAESSS [RAI14_Y869] | 0.875 | 0.448 | 0.903 | 0.778 | 0.394 | 0.382 | 0.336 | 0.403 | 0.441 | 0.467 | 0.582 | 0.45 | 0.471 | 0.483 | 0.607 | 0.372
